Several values for one entry are separate records, joined by “and”; a condition that tells them apart may be missing. Equal values may be shown once. One block for each binder: values may come before it. *1 amine or outer side, *2 acyl side, *3 side chain or, on linkers, in order; H or OH if unused. Bridges are numbered along the chain shown (N, C = ends). Side-chain parts run from the residue outwards. [ ]: non-standard residue; d: D form. The star is where a group is joined. PipA(acetate-DOTA) = (3-(4-piperidinyl)-Ala)-(1,4,7,10-tetraazacyclododecane-1,4,7-triyl)triacetic acid, O=C(O)CN1CCN(CC(=O)O)CCN(CC(=O)N2CCC(C[C@H](N[*:1])C(=O)[*:2])CC2)CCN(CC(=O)O)CC1; PipA(Peg) = 3-(4-piperidinyl)-Ala-(3-hydroxypropanoic acid), O=C(CCO[*:3])N1CCC(C[C@H](N[*:1])C(=O)[*:2])CC1; Ala(piperidin-4-yl) = O=C([C@H](CC1CCN([*:3])CC1)N[*:1])[*:2]; DOTA = O=C(O)CN1CCN(CC(=O)O)CCN(CC(=O)*)CCN(CC(=O)O)CC1; PEG8 = NCCOCCOCCOCCOCCOCCOCCOCCOCCC(=O)O; 2Nal = N[C@@H](Cc1ccc2ccccc2c1)C(=O)O; NMetBuAla = CN[C@@H](CC(C)(C)C)C(=O)O; Ile(3-Me) = CCC(C)(C)[C@H](N)C(=O)O; Chg = N[C@H](C(=O)O)C1CCCCC1; Tle = CC(C)(C)[C@H](N)C(=O)O; plPh = not defined here; CH2 = C([*:1])[*:2]
Legend:
[1] = target: DLL3 on CT26.DLL3 cells (Homo sapiens (Human)) (UniProt Q9NYJ7); experiment: [177Lu]Lu-labelled peptide on CT26.DLL3 cells, 1 h 37 C, gamma counter; B = 25<%<=50
[2] = target: T1, DLL3 on CT26.DLL3 cells (Homo sapiens (Human), UniProt Q9NYJ7 27-618); experiment: [177Lu]Lu-labelled peptide on CT26.DLL3 cells, 1 h 37 C, gamma counter; A = %<=25
T1 construct: CT26.DLL3 are engineered cells to express DLL3
T1 sequence: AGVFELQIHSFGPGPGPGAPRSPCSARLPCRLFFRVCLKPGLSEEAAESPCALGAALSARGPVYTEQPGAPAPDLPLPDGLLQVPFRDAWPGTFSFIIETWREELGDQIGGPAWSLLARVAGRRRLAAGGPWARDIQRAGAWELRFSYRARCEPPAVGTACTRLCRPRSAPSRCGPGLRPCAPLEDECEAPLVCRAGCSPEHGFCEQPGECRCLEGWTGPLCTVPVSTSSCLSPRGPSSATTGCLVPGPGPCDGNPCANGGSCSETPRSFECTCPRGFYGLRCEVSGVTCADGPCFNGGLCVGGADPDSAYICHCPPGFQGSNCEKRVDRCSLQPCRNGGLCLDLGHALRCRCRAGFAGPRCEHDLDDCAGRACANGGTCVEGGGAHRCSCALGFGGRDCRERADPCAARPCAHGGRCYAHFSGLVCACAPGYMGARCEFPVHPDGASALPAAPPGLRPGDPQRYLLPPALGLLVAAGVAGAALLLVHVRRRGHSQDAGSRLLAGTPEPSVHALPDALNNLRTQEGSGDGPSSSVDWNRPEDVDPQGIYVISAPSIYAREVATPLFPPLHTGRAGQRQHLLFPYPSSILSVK
Method: Adherent cell studies: The cells were cultured in appropriate culture media (20 mL) in tissue culture treated T150 flasks at 37° C. and 5% C02. Adherent cells were detached (60-70% confluent) using 5 mL Versene at 37° C. for 3 minutes. After confirming the viability using countess and count of detached cells using Trypan blue, the cells were centrifuged at 4° C. for 5 minutes (1,000 rpm). The cell pellet obtained was washed once with PBS and resuspended in 1% PBSA to obtain the desired cell concentration (5-25 million cells/mL).
Total uptake: Cells were incubated with 300 μL (0.8 μCi) of the incubation buffer (containing radiolabeled peptide [¹⁷⁷Lu]Lu-test peptide) for 1 hour at 37° C. (Table 10). Post incubation, the cells were pelleted and washed 2 times using cold PBS+1% BSA. The supernatant and washes were combined and counted together as “unbound fraction” in a gamma counter. The cells were then resuspended in 300 μL of 1% PBS+1% BSA and counted in the gamma counter as “bound fraction”.

[3] = target: T2, DLL3 on SHP-77 cells (human, UniProt Q9NYJ7 27-618); experiment: [177Lu]Lu-labelled peptide on SHP-77 cells, 1 h 37 C, gamma counter; C = %>50
T2 construct: SHP-77 cells are human-derived, non-engineered SCLC cells
T2 sequence: T1 sequence

B2: Cpd No. 301 (peptide)
peptide: Ac-WT[Tle]C[Ala(piperidin-4-yl)]N[2Nal]K(DOTA)DCWP-NH2
modifications: disulfide 4-10
- % Binding [1]: > 25% and < 50%

B3: Cpd No. 318 (peptide)
peptide: Ac-WT[Chg]CNN[2Nal]K(DOTA)DCWP-NH2
modifications: disulfide 4-10
- % Binding [2]: ≤ 25%

B6: Cpd No. 153 (peptide)
peptide: Ac-WT[NMetBuAla]C[Ala(piperidin-4-yl)]N[2Nal]K(DOTA)DCWP-NH2
modifications: bridge 4-10; not fully specified (bridges)
- % Binding [3]: > 50%

Results, then the binder that gave them:

- % Binding [1]: > 25% and < 50%
B1: Cpd No. 417 (peptide)
peptide: Ac-WT[Chg]C[Ala(piperidin-4-yl)]N[2Nal]K(DOTA)DCWP[dK]([PEG8-plPh])-NH2
modifications: bridge 4-10; not fully specified (bridges); reading uncertain; also: bridge 4-10: thioacetal per mods, disulfide

- % Binding [3]: > 50%
B4: Cpd No. 449 (peptide)
peptide: Ac-WT[NMetBuAla]C[PipA(acetate-DOTA)]N[2Nal]K(DOTA)DCWP-NH2
modifications: linker 4-10 via CH2

- % Binding [2]: ≤ 25%
B5: Cpd No. 321 (peptide)
peptide: Ac-WT[Ile(3-Me)]CNN[2Nal]K(DOTA)DCWP-NH2
modifications: disulfide 4-10

- % Binding [3]: > 50%
B7: Cpd No. 448 (peptide)
peptide: Ac-WT[NMetBuAla]C[PipA(Peg)]N[2Nal]K(DOTA)DCWP-NH2
modifications: linker 4-10 via CH2
